Reference: patent US20230181671A1 (published 2023)

B1: 63D8 (antibody, IgG1, V domains shown)
VH: EVKLLESGGGLVQPGGSLKLSCTASGFDFSRYWMSWVRQAPGKGLEWIGEINPSRSAINYSPSLKDKFIISRDNAKNTLYLQMSKVRSEDTALYYCARQGQRLRYGMDYWGQGTSVTVSS
VL: DIVMTQSPNFMSTSVGDRVSVTCRASQDVRTAVAWYQQKPGRSPKLLIYWTSTRHTGVPDRFTGSGSGTDYTLTISSVQAADLALYYCQQHYGTPLTFGAGTNLELK
notes: First found as a mouse hybridoma antibody
B2: Antibody 4 (antibody, IgG1, V domains shown)
VH: QVQLQQSGAELARPGASVKLSCKASGYTFTSSGISWVKQRTGQGLEWIGEIYPRSGYTNYNEKFKGKASLTADKSSRTAYMELRSLTSEDSAVYFCARDYDNSRYALDYWGQGTSVTVSS
VL: SIVMTQTPKFLPVSAGDRVTMTCKASQSVGYNVAWYQQKTGQSPKLLIYYASNRYTGVPDRFTGSGSGTDFTFTISSVQVEDLAVYFCQHHYSSPLTFGAGTKLELK
B3: Antibody 15, monomeric Fab (Fab, V domains shown)
VH: QVQLVQSGSELKKPGASVKVSCKASGYTFTSSGISWVRQAPGQGLEWMGEILPRSGYTNYNQGFTGRFVFSADKSVSTAYLQISSLKAEDTAVYYCARDFKGGRYAMDYWGQGTTVTVSS
VL: SIQMTQSPSSLSASVGDRVTITCQASQSVRYNVAWYQQKPGKAPKLLIYYASNRYEGVPSRFSGSGSGTDFTFTISSLQPEDIATYFCQHHYSSPLTFGGGTKLEIK
B4: anti-LPAR1 mAb with the VH of SEQ ID NO: 369 and VL of SEQ ID NO: 39 (antibody, IgG1, V domains shown)
VH: QVQLVQSGSELKKPGASVKVSCKASGYTFTSSGISWVRQAPGQGLEWMGEILPRSGYTNYNQGFTGRFVFSADKSVSTAYLQISSLKAEDTAVYYCARDFASARYAMDYWGQGTTVTVSS
VL: SIQMTQSPSSLSASVGDRVTITCQASQSVRYNVAWYQQKPGKAPKLLIYYASNRYTGVPSRFSGSGSGTDFTFTISSLQPEDIATYFCQHHYSSPLTFGGGTKLEIK
notes: also called huVH4_Q61A97A99G104 (VH); 11 VL
B5: Antibody 16, monomeric Fab (Fab, V domains shown)
VH: QVQLVQSGSELKKPGASVKVSCKASGYTFTSSGISWVRQAPGQGLEWMGEILPRSGYTNYNQGFTGRFVFSADKSVSTAYLQISSLKAEDTAVYYCARDFKGGRYAMDYWGQGTTVTVSS
VL: SIQMTQSPSSLSASVGDRVTITCQASQSVRYNVAWYQQKPGKAPKLLIYYASNRYEGVPSRFSGSGSGTDFTFTISSLQPEDIATYFCQHHYSSPLTFGGGTKLEIK
notes: Same VH and VL as Antibody 15; The two antibodies differ only in the silencing mutations of the heavy chain constant region
B6: Antibody 13, monomeric Fab (Fab, V domains shown)
VH: QVQLVQSGSELKKPGASVKVSCKASGYTFTSSGISWVRQAPGQGLEWMGEILPRSGYTNYNQGFTGRFVFSADKSVSTAYLQISSLKAEDTAVYYCARDKGPSRYTMDYWGQGTTVTVSS
VL: SIQMTQSPSSLSASVGDRVTITCQASQSVRYNVAWYQQKPGKAPKLLIYYASNRYDGVPSRFSGSGSGTDFTFTISSLQPEDIATYFCQHHYSSPLTFGGGTKLEIK
B7: Antibody 18, monomeric Fab (Fab, V domains shown)
VH: QVQLVQSGSELKKPGASVKVSCKASGYTFTSSGISWVRQAPGQGLEWMGEIQPRSGYTNYNQGFTGRFVFSADKSVSTAYLQISSLKAEDTAVYYCARDKGPARYTMDYWGQGTTVTVSS
VL: SIQMTQSPSSLSASVGDRVTITCQASQSIRYNVAWYQQKPGKAPKLLIYYASNRYEGVPSRFSGSGSGTDFTFTISSLQPEDIATYYCQHHYSSPLTFGGGTKLEIK
B8: Antibody 12, monomeric Fab (Fab, V domains shown)
VH: QVQLVQSGSELKKPGASVKVSCKASGYTFTSSGISWVRQAPGQGLEWMGEILPRSGYTNYNQGFTGRFVFSADKSVSTAYLQISSLKAEDTAVYYCARDFKGGRYAMDYWGQGTTVTVSS
VL: SIQMTQSPSSLSASVGDRVTITCQASQSVRYNVAWYQQKPGKAPKLLIYYASNRYDGVPSRFSGSGSGTDFTFTISSLQPEDIATYFCQHHYSSPLTFGGGTKLEIK
B9: Antibody 17, monomeric Fab (Fab, V domains shown)
VH: QVQLVQSGSELKKPGASVKVSCKASGYTFTSSGISWVRQAPGQGLEWMGEIQPRSGYTNYNQGFTGRFVFSADKSVSTAYLQISSLKAEDTAVYYCARDKGPARYTMDYWGQGTTVTVSS
VL: SIQMTQSPSSLSASVGDRVTITCQASQSVRYNVAWYQQKPGKAPKLLIYYASNRYEGVPSRFSGSGSGTDFTFTISSLQPEDIATYFCQHHYSSPLTFGGGTKLEIK

Legend:
[1] = biological target: T1, human LPAR1 (full length LPAR1, SEQ ID NO: 62) (human, UniProt Q92633 1-364); test: transient-transfection CIFAT (method 1.11), fixed/permeabilised and live cells expressing LPAR1, microscopy
T1 construct: Also used here for hLPAR1 in HEK293 cells (method 1.15); also called Lysophosphatidic Acid Receptor 1; LPA1
Description: CHO-K1 cells were seeded in clear 96-well plates at 20,000 cells per 200 μL full growth medium and incubated for 24 hours at 37° C. The following day, in a sterile tube, 0.0309 uL/well PEI (Generon, MW 160,000) was diluted into 10 uL/well transfection medium (DMEM supplemented with 2 mM L-glutamine and Penicillin-Streptomycin). The diluted PEI was added to 100 ng/well DNA encoding the target protein (human LPAR1 (SEQ ID NO: 62) unless otherwise stated), before vortexing immediately and incubating the mixture for 10 minutes at room temperature. 200 μL/well full growth medium was added to the PEI-DNA mixture, then medium in wells was taken off and 200 ul full growth medium/PEI/DNA mixture was added in the wells of the adherent cell plate. The plate was incubated for 24 hours at 37° C. The next day, the medium was discarded and replaced with 200 μL full growth medium. The plate was incubated for 24 hours at 37° C. […] After washing and cell fixation with 4% PFA, the binding of the antibodies was detected using a goat anti-human Alexa Fluor 488 detection antibody (Invitrogen), incubated for 1 hour at room temperature. Fluorescence at 488 nm was measured using a BMG LABTECH ClarioStar plate reader and microscopy images were taken at 10× magnification. […]

[2] = biological target: T2, LPAR1 (on CHO cells; species not stated) (UniProt Q92633 1-364); test: KinExA (method 1.14), monomeric Fab as constant binding partner, CHO-LPAR1 cells titrated
T2 construct: whole, on cells; also called CHO-LPAR1 cells
Description: The monomeric affinity constant KD for the interaction of antibodies with LPAR1 was determined using monomeric Fabs derived from the antibodies, using the KinExA method. In this method, the concentration of unbound antibody is measured against a range of antigen concentrations. Because KD=([Free antigen][Free antibody])/[Antigen-antibody complex], the value of KD can be deduced from these measurements. CHO-LPAR1 cells, the antigen source, are titrated in a background of constant binding partner (CBP, e.g. a Fab to be tested). Samples are gently rocked until equilibrium is reached. After incubation, cells are centrifuged and the free CBP is removed without disturbing the cell pellet. Beads coated with Anti-Species are used to capture a portion of free CBP. Captured CBP is detected with a fluorescently labelled Anti-CBP using the KinExA. The fluorescent signal is converted to a voltage signal that is directly proportional to the concentration of free CBP in the equilibrated sample.

[3] = biological target: T1, human LPAR1 (full length LPAR1, SEQ ID …); test: transient-transfection CIFAT (protocol 1.11) on CHO-K1 cells expressing human LPAR1 and alanine variants
Description: CHO-K1 cells were seeded in clear 96-well plates at 20,000 cells per 200 μL full growth medium and incubated for 24 hours at 37° C. The following day, in a sterile tube, 0.0309 uL/well PEI (Generon, MW 160,000) was diluted into 10 uL/well transfection medium (DMEM supplemented with 2 mM L-glutamine and Penicillin-Streptomycin). The diluted PEI was added to 100 ng/well DNA encoding the target protein (human LPAR1 (SEQ ID NO: 62) unless otherwise stated), before vortexing immediately and incubating the mixture for 10 minutes at room temperature. 200 μL/well full growth medium was added to the PEI-DNA mixture, then medium in wells was taken off and 200 ul full growth medium/PEI/DNA mixture was added in the wells of the adherent cell plate. […] After washing and cell fixation with 4% PFA, the binding of the antibodies was detected using a goat anti-human Alexa Fluor 488 detection antibody (Invitrogen), incubated for 1 hour at room temperature. Fluorescence at 488 nm was measured using a BMG LABTECH ClarioStar plate reader and microscopy images were taken at 10× magnification.
Based on the epitope analysis presented in FIGS. 3 and 4, constructs were designed to test the important residues/interaction regions predicted in silico. […] CHO-K1 cells were transiently transfected with these plasm ids and the binding of an anti-LPAR1 mAb assessed to each of these receptor variants using protocol 1.11. […]

T2 sequence (Q92633 whole entry): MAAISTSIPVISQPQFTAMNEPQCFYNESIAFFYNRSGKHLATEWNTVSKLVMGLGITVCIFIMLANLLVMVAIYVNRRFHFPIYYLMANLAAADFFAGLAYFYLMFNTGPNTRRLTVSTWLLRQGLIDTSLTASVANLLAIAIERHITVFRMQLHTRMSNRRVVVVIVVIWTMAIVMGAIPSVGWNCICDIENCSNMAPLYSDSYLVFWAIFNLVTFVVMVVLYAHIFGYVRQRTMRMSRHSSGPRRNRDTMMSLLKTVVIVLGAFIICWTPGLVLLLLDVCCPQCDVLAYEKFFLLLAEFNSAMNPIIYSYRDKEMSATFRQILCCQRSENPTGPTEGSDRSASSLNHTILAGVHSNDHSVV
T1 sequence (Q92633 whole entry): as above

Binder | Kd [2] [nM] | other results
B1 |  | binding result [1]: binds
B2 |  | binding result [1]: binds
B3 | 0.824 | 
B4 |  | binding result [3]: binds
B5 | 0.824 | 
B6 | 0.993 | 
B7 | 1.39 | 
B8 | 1.28 | 
B9 | 1 | 
